The assay concerns the target beta-catenin (human). Kind of assay: fluorescence polarization. For orientation: Fluorescence polarisation rises when a labelled molecule tumbles more slowly, as on binding a larger partner.

The text below walks through data of patent publication US20260207704A1, “STAPLED PEPTIDES AND METHODS THEREOF” (priority 2022, published 2026).

*1 amine or outer side, *2 acyl side, *3 side chain or, on linkers, in order; H or OH if unused. Bridges are numbered along the chain shown (N, C = ends). Primed or numbered codes have the meaning given here. [ ]: non-standard residue; d: D form. B5(4) = 2-amino-2-(pent-4-en-1-yl)hept-6-enoic acid, stapled through each of its two olefin groups with other olefin-containing amino acid residues, O=C(C(CCCC=[*:3])(CCCC=[*:4])N[*:1])[*:2]; PyrS2″ = (S)-3-amino-1-((pent-4-en-1-yloxy)carbonyl)pyrrolidine-3-carboxylic acid (olefin stapling residue), C=CCCCOC(=O)N1CC[C@@](N[*:1])(C(=O)[*:2])C1; PyrS2(5) = (S)-3-amino-1-((pent-4-en-1-yloxy)carbonyl)pyrrolidine-3-carboxylic acid, C=CCCCOC(=O)N1CC[C@@](N[*:1])(C(=O)[*:2])C1; 2F3MeF(3) = aromatic amino acid residue, Cc1cccc(C[C@H](N[*:1])C(=O)[*:2])c1F; Phe(3-COOH) = N[C@@H](Cc1cccc(C(=O)O)c1)C(=O)O; 2F3MeF = Cc1cccc(C[C@H](N[*:1])C(=O)[*:2])c1F; Bta = N[C@@H](Cc1csc2ccccc12)C(=O)O; αAllylPro = C=CC[C@@]1(C(=O)O)CCCN1; BztA = aromatic amino acid residue; tBuAla = CC(C)(C)C[C@H](N)C(=O)O; 3Thi = N[C@@H](Cc1ccsc1)C(=O)O; Cha = N[C@@H](CC1CCCCC1)C(=O)O; PyrS2(4) = not defined here; hSer = N[C@@H](CCO)C(=O)O; TfeGA = not defined here; GlnR = not defined here; PL3 = not defined here; B5 = not defined here

Sequence of beta-catenin (human) (B6V8E6 146-665 limits assumed): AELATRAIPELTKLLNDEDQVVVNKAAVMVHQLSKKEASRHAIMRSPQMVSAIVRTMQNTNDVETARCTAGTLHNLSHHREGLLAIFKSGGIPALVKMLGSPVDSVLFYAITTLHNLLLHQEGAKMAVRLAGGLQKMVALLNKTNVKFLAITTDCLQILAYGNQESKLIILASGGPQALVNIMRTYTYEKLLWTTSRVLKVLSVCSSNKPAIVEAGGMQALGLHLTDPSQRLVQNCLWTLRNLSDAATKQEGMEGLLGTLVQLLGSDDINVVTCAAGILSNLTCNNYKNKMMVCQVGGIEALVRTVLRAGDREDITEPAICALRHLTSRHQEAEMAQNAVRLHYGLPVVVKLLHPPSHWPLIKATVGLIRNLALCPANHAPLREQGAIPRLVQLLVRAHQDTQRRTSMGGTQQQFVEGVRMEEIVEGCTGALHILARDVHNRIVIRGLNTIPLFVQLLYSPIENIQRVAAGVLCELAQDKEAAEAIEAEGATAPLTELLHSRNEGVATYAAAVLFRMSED

B1: I-116 (peptide)
peptide: Ac-[PL3][hSer][tBuAla][B5]D[TfeGA]AAFK[PyrS2(4)][2F3MeF][Bta][GlnR]A-NH2
modifications: staple 1-4; bridge 10-14; reading uncertain; also: PyrS2 tied into a staple, partner not placed
As a reminder, the IC50 is the concentration that gives 50% inhibition. Consider B1, for which the half-inhibitory concentration (IC50) was above 1000 nM.

B2: I-92 (peptide)
peptide: Ac-[αAllylPro]D[tBuAla][B5(4)]D[Phe(3-COOH)][GlnR]AFL[PyrS2(5)][2F3MeF(3)][BztA][GlnR](diaminobutane)A-NH2
modifications: staple 1-4 (inferred); not fully specified (bridges); printed as Ac-PL3-Asp-Npg-B5-Asp-3COOHF-GlnR-Ala-Phe-Leu-PyrS2-2F3MeF-BztA-[diaminobutane]GlnR-Ala-NH2; reading uncertain
On to B2, for which the IC50 is below 50 nM.

B3: I-107 (peptide)
peptide: Ac-[PL3]D[Cha][B5]D[Phe(3-COOH)]AAFK[PyrS2(4)][2F3MeF][Bta][GlnR]L-NH2
modifications: staple 1-4; bridge 10-14; not fully specified (residue 10); printed as Ac-PL3-Asp-Cha-B5-Asp-3COOHF-Ala-Ala-Phe-Lys*3-PyrS2-2F3MeF-BztA-GlnR*3-Leu-NH2; reading uncertain; also: PyrS2 tied into a staple, partner not placed
The molecule B3 returned an IC50 below 50 nM.

B4: I-2 (peptide)
peptide: Ac-[PL3]DL[B5(4)]DDAAF[dK][PyrS2″][3Thi][Bta][GlnR]-NH2
modifications: bridge 10-14; not fully specified (bridges); printed as Ac-PL3-Asp-Leu-B5-Asp-Asp-Ala-Ala-Phe-dLys*3-PyrS2-3Thi-BztA-GlnR*3-NH2; reading uncertain
Molecule B4 yielded an IC50 below 50 nM.

B5: I-99 (peptide)
peptide: Ac-[PL3]D[tBuAla][B5]D[Phe(3-COOH)][tBuAla]AFK[PyrS2″][2F3MeF(3)][BztA][GlnR]A-NH2
modifications: staple 1-4 (inferred); bridge 10-14; not fully specified (residue 10, bridges); printed as Ac-PL3-Asp-Npg-B5-Asp-3COOHF-Npg-Ala-Phe-Lys*3-PyrS2-2F3MeF-BztA-GlnR*3-Ala-NH2; reading uncertain; also: Lys10 and GlnR14 marked *3
In turn, B5 showed an IC50 below 50 nM.

B6: I-112 (peptide)
peptide: Ac-[PL3]D[tBuAla][B5]D[TfeGA]AAFK[PyrS2(4)][2F3MeF][Bta][GlnR]A-NH2
modifications: staple 1-4; bridge 10-14; reading uncertain; also: PyrS2 tied into a staple, partner not placed
B6 showed an IC50 below 50 nM.

B7: I-105 (peptide)
peptide: Ac-[PL3]D[tBuAla][B5]D[Phe(3-COOH)]AAFK[PyrS2(4)][2F3MeF][Bta][GlnR]L-NH2
modifications: staple 1-4; bridge 10-14; not fully specified (residue 10); printed as Ac-PL3-Asp-Npg-B5-Asp-3COOHF-Ala-Ala-Phe-Lys*3-PyrS2-2F3MeF-BztA-GlnR*3-Leu-NH2; reading uncertain; also: PyrS2 tied into a staple, partner not placed
Molecule B7 displayed an IC50 below 50 nM.

B8: I-102 (peptide)
peptide: Ac-[PL3]D[tBuAla][B5]D[Phe(3-COOH)][Cha]AFK[PyrS2(4)][2F3MeF][Bta][GlnR]A-NH2
modifications: staple 1-4; bridge 10-14; not fully specified (residue 10); printed as Ac-PL3-Asp-Npg-B5-Asp-3COOHF-Cha-Ala-Phe-Lys*3-PyrS2-2F3MeF-BztA-GlnR*3-Ala-NH2; reading uncertain; also: PyrS2 tied into a staple, partner not placed
B8 came in with an IC50 below 50 nM.

B9: I-113 (peptide)
peptide: Ac-[PL3]N[tBuAla][B5]D[TfeGA]AAFK[PyrS2(4)][2F3MeF][Bta][GlnR]A-NH2
modifications: staple 1-4; bridge 10-14; reading uncertain; also: PyrS2 tied into a staple, partner not placed
Molecule B9 had an IC50 below 50 nM.

B10: I-98 (peptide)
peptide: Ac-[PL3]D[Cha][B5]D[Phe(3-COOH)]AAFK[PyrS2″][2F3MeF(3)][BztA][GlnR]A-NH2
modifications: staple 1-4 (inferred); bridge 10-14; not fully specified (residue 10, bridges); printed as Ac-PL3-Asp-Cha-B5-Asp-3COOHF-Ala-Ala-Phe-Lys*3-PyrS2-2F3MeF-BztA-GlnR*3-Ala-NH2; reading uncertain; also: Lys10 and GlnR14 marked *3
In the case of B10, the IC50 was below 50 nM.

B11: I-100 (peptide)
peptide: Ac-[PL3]D[tBuAla][B5]D[Phe(3-COOH)][tBuAla]AFK[PyrS2(4)][2F3MeF][Bta][GlnR]A-NH2
modifications: staple 1-4; bridge 10-14; not fully specified (residue 10); printed as Ac-PL3-Asp-Npg-B5-Asp-3COOHF-Npg-Ala-Phe-Lys*3-PyrS2-2F3MeF-BztA-GlnR*3-Ala-NH2; reading uncertain; also: PyrS2 tied into a staple, partner not placed
With B11, the IC50 was below 50 nM.

B12: I-108 (peptide)
peptide: Ac-[PL3]D[tBuAla][B5]D[Phe(3-COOH)][tBuAla]AFK[PyrS2(4)][2F3MeF][Bta][GlnR]L-NH2
modifications: staple 1-4; bridge 10-14; not fully specified (residue 10); printed as Ac-PL3-Asp-Npg-B5-Asp-3COOHF-Npg-Ala-Phe-Lys*3-PyrS2-2F3MeF-BztA-GlnR*3-Leu-NH2; reading uncertain; also: PyrS2 tied into a staple, partner not placed
Regarding B12, the IC50 is below 50 nM.

B13: I-103 (peptide)
peptide: Ac-[PL3]D[Cha][B5]D[Phe(3-COOH)][Cha]AFK[PyrS2(4)][2F3MeF][Bta][GlnR]A-NH2
modifications: staple 1-4; bridge 10-14; not fully specified (residue 10); printed as Ac-PL3-Asp-Cha-B5-Asp-3COOHF-Cha-Ala-Phe-Lys*3-PyrS2-2F3MeF-BztA-GlnR*3-Ala-NH2; reading uncertain; also: PyrS2 tied into a staple, partner not placed
B13 came in with a half-maximal inhibitory concentration (IC50) below 50 nM.

B14: I-115 (peptide)
peptide: Ac-[PL3][hSer][tBuAla][B5]D[TfeGA]AAFK[PyrS2(4)][2F3MeF][Bta][GlnR]A-NH2
modifications: staple 1-4; bridge 10-14; reading uncertain; also: PyrS2 tied into a staple, partner not placed
B14: the IC50 was above 1000 nM.
